Positions count from the first letter of the chain named. In names and notes the source's numbering stands.
T1: Recombinant Xenopus GINS (preparation of ref. 54, Sf9 expression) (Xenopus laevis, UniProt Q7ZT47 1-196; Q7ZT46 1-185; Q7ZT01 1-210; Q7ZT48 1-221)
T1 construct: PSF1 subunit of Xenopus GINS; PSF2 subunit of Xenopus GINS; PSF3 subunit of Xenopus GINS; SLD5 subunit of Xenopus GINS; also called purified GINS; source: Sf9 expression, purified; copies: + + +
T1 sequence (looked up) 1: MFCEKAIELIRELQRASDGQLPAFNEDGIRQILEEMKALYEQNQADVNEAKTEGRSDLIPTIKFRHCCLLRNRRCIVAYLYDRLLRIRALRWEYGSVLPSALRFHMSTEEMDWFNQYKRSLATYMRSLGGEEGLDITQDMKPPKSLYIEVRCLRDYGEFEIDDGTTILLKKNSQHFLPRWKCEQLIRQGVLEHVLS
T1 sequence (looked up) 2: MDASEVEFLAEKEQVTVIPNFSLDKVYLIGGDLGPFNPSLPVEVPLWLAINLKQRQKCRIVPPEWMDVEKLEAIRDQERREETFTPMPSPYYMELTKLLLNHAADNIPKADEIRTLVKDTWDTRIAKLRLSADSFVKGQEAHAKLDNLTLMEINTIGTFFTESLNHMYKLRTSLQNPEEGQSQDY
T1 sequence (looked up) 3: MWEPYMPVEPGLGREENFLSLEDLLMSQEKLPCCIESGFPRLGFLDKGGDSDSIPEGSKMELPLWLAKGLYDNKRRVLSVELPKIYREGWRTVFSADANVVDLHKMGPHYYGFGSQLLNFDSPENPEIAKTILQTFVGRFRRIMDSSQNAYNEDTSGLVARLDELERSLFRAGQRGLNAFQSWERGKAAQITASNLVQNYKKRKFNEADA
T1 sequence (looked up) 4: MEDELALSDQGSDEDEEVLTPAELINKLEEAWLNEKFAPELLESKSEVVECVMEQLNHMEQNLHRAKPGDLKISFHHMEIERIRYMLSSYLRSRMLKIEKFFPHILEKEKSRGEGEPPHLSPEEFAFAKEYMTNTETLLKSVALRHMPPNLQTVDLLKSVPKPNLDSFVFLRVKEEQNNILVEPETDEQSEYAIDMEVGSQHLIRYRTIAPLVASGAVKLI

B1: Recombinant FLAG-tagged DONSON, wild type (natural protein, Xenopus laevis, UniProt Q5U4U4 1-579, looked up)
chain: MAELLPGYSPSFKKPSEILRLSRRRSRSEASKTGLSPFSPGDVIKRVPGLRPFSPGPNKGAGVKRRNPFASLENTVCSPVKRRAETVAEYGAASLEPRALSAVRPSCLGQDSPEPPQFNSVEDVIWGDPLAADADPLVKTESPEKPAPACEIPKGSVTFPADWSLKTRLLFTSSHSFSWADHLKAQEEAQGLVMQCRATAVNLPHSIQEPKLSTDLRCAFQQSLVHWIHPSLPWVQLFPRIGVDRKMAGKNTPWSQDESLQQVLMSEWALSFTSLYNLLKAKLCPYFYVCTYQFTVLFRAAGLAGSDVITAVMSPTTRGLREAMKNEGITFSQPLVEDDTGKKQKKPEAASQGDINPEKENGTAEADEASDESDEDESFSWLEEMGVEDKIKKPDSISIKLRKEKNEVKLDHKPESVVLVKGTNTFTLLNFLINCKSIVAAAGLQAGLPPTLLSPVAFRGATMHALKARSVNVKTRVNSGYKDQFSLEITGPIMPHSLHSLTMLLQSAQRGSFSAGLYTHEPTAVFNTPIHSQAVKEISADLQNCGLHPCTVEQLTQVNELGKLSLRHLEMTDYRYTWK
notes: Xenopus DONSON (Downstream Neighbor of SON); also called rFLAG-DONSON; FLAG-DONSON; source: E. coli Rosetta (DE3) pLysS, purified (Glutathione Sepharose, PreScission cleavage, Superdex 200); not shown: GST, N-terminal, cleaved
B2: Recombinant FLAG-tagged DONSON N430A (natural protein, Xenopus laevis, UniProt Q5U4U4 1-579, looked up)
chain: B1 chain with N430A
notes: Xenopus DONSON with N430A; source: E. coli Rosetta (DE3) pLysS, purified (Glutathione Sepharose, PreScission cleavage, Superdex 200); not shown: GST, N-terminal, cleaved

How the values were obtained:
[1] = molecular target: T1, Recombinant Xenopus GINS (preparation …); experiment: co-IP; purified FLAG-DONSON, GINS and TOPBP1^1−530 mixed, each 0.5 μM in IP wash buffer, 15 min room temperature; anti-FLAG beads 30 min room temperature; immunoblot (fig. S11B, lanes 22 to 24); details: both partners purified
[2] = molecular target: the molecule itself; experiment: mass photometry; Refeyn TwoMP; FLAG-DONSON diluted to 200 nM in egg lysis buffer (10 mM HEPES-KOH pH 7.7, 50 mM KCl, 2.5 mM MgCl2, 250 mM sucrose), 2 μL mixed into an 18 μL droplet of PBS

Binder | binding result [1] | stoichiometry N [2]
B1 | binds | 2
B2 | binds | 

From PMC10801813, “In silico protein interaction screening uncovers DONSON’s role in replication initiation” (Science (New York, N.Y.), 2023)
